Assay results as given in patent publication CN112159477A (UNIV SHANGHAI MEDICAL & HEALTH SCIENCES, dated 2021).

Columns and labels:
[1] = target: T1, rhMICA-His蛋白 (human, UniProt Q29983 24-308); assay: BLI (Fortebio Octet Red96), rhNKG2D-Fc captured on AHC sensor, rhMICA-His 1.23-11.1 nM as analyte
T1 construct: Control protein; also called MICA蛋白; not shown: His tag
T1 sequence (looked up): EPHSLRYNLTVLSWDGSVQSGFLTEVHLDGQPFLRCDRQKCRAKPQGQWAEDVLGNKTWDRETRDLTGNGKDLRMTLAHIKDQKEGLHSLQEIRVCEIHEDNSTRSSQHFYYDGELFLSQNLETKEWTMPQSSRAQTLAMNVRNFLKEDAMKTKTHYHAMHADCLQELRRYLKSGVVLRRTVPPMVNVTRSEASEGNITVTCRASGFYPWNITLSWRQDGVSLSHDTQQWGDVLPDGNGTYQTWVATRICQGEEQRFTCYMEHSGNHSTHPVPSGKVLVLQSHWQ

[2] = target: T1, rhMICA-His蛋白; assay: BLI (Fortebio Octet Red96), rhNKG2D-Fc captured on AHC sensor, rhMICA-His as analyte

- Kd [1]: 1.26 nM
- koff [2]: 0.0015 s⁻¹
- kon [2]: 1.19e+06 M⁻¹ s⁻¹
B1: rhNKG2D-Fc蛋白 (Fc fusion, human, UniProt P26718 78-216, looked up)
chain: FLNSLFNQEVQIPLTESYCGPCPKNWICYKNNCYQFFDESKNWYESQASCMSQNASLLKVYSKEDQDLLKLVKSYHWMGLVHIPTNGSWQWEDGSILSPNLLTIIEMQKGDCALYASSFKGYIENCSTPNTYICMQRTV
notes: the order of the parts follows the printed name only; not shown: Fc part (captured by an anti-human IgG Fc sensor)
